Measured values: patent publication US20050276811A1

Assays:
[1] = biological target: IgM^CM-22; experiment: cell-based or functional assay
[2] = biological target: IgM^CM-22; experiment: competition ELISA: synthetic P8 peptide titrated against phage P8 binding to IgM^CM-22-coated plate
[3] = biological target: IgM^CM-22; experiment: SPR (BiaCore), IgM^CM-22 amine-coupled to CM5 chip, N2 injected at 10.5-120 µM, steady-state fit with 1:1 Langmuir isotherm

NGNNVNGNRNNN [synthetic peptide P8]
concentration of P8 sufficient to block IgM^CM-22 [1]: 10 µM | mean pathology score, intestinal RI in RAG-1-/- mice given IgM^CM-22 mixed with P8 versus IgM^CM-22 alone (pathology score) [1]: 6 | IC50 [2]: 10 µM

LMKNMDPLNDNV [self-peptide N2]
mean pathology score, intestinal RI in RAG-1-/- mice given IgM^CM-22 mixed with N2 versus IgM^CM-22 and saline (pathology score) [1]: 13 | Kd [3]: 123 µM
